In patent EP0717753B1:

Key:
[1] = target: p185 HER2/neu (UniProt P04626); assay: radioimmunoassay on fixed SKBR3 cells, 125I anti-mouse Ig secondary antibody
[2] = target: Epidermal Growth Factor Receptor (UniProt P00533); assay: radioimmunoassay on fixed A431 cells (non-target cell line for MGR6), 125I anti-mouse Ig secondary antibody
[3] = target: Epidermal Growth Factor Receptor (UniProt P00533); assay: cell-based or functional assay
[4] = target: Epidermal Growth Factor Receptor (UniProt P00533); assay: radioimmunoassay on fixed A431 cells, 125I anti-mouse Ig secondary antibody
[5] = target: p185 HER2/neu (UniProt P04626); assay: radioimmunoassay on fixed SKBR3 cells (non-target cell line for Mint5), 125I anti-mouse Ig secondary antibody

Substance | % binding [1] | % binding [2] | INHIBITION OF CELL PROLIFERATION: IC50 CELL LINE A431, protocol A [3] | INHIBITION OF CELL PROLIFERATION: IC50 CELL LINE A431, protocol B [3] | INHIBITION OF PROTEIN … IN CELL SYSTEM: IC50 CELL LINE A431, protocol A [3] | INHIBITION OF PROTEIN … IN CELL SYSTEM: IC50 CELL LINE A431, protocol B [3] | % binding [4] | % binding [5]
immunoconjugate MGR6 - Ocymoidine (antibody) | 87.5% | 15.3% | – | – | – | – | – | –
immunoconjugate MGR6 - Piramidatine (antibody) | 105% | – | – | – | – | – | – | –
immunoconjugate Mint5 - Ocymoidine (antibody) | – | – | 1.9e-12 | 3.2e-11 | 1e-11 | 1e-11 | 78.5% | 9.38%
immunoconjugate Mint5 - Piramidatine (antibody) | – | – | 1.3e-12 | 4.2e-11 | 1e-11 | 1e-11 | 110% | 18.8%
